We go through one substance from PMC6034166.

For the test, the target named is ethylenediamine-N,N′-disuccinic acid lyase (EDDS lyase) from Chelativorans sp. BNC1 (Chelativorans sp. BNC1). Kind of test: SEC + other: dynamic light scattering.

On to “ethylenediamine-N,N′-disuccinic acid lyase (EDDS lyase) from Chelativorans sp. BNC1 (enzyme)”, for which the stoichiometry N (usually the number of molecules, sites or subunits per partner or assembly) is 4.
